Each block holds one binder with its values, some of them ahead of it.
Columns and labels:
[1] = molecular target: T1, GST fusion of the cytoplasmic domain of human desmoglein-3 (human, UniProt P32926 641-999); test: pull-down; GST-tagged cytoplasmic domains of Dsg1-3 immobilised on glutathione sepharose, HaCaT lysate (1 mg), overnight at 4 °C; 10 mM Tris-HCl pH 8.0, 150 mM NaCl, 5 mM EDTA, 0.5% Triton X-100, 60 mM N-octylglucoside; Western blot; GST as negative control; details: one partner purified
T1 construct: cytoplasmic domain of human desmoglein-3, cloned by PCR from HaCaT cells into pGEX-4T1; worked out from the printed primers: the forward primer begins with the codons for LTCDCGA, the reverse primer holds the stop codon (ends DPCSRLI-stop); also called Dsg3 tail; cytoplasmic tail of Dsg3; source: E. coli Rosetta (DE3) pLysS, purified (glutathione sepharose)
T1 sequence (looked up): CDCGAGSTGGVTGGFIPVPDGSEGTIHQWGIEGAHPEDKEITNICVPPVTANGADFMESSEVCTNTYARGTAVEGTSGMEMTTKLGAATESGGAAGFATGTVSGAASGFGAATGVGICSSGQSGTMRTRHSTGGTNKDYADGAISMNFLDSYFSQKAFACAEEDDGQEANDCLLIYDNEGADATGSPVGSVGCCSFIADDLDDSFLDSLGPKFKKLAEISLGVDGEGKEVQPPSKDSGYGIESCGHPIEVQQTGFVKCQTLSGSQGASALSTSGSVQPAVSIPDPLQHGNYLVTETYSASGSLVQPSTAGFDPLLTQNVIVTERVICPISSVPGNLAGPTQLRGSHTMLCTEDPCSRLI

[2] = molecular target: T2, flotillin-1-GST fusion (rat, full length) (rat, UniProt Q9Z1E1 1-428); test: pull-down; Dsg3-MBP (5 μg) immobilised on amylose resin, eluted flotillin-GST proteins in solution; 50 mM Tris-HCl pH 7.5, 150 mM NaCl, 0.01% Triton X-100, 1 mM DTT, 1 mM EDTA, 1% BSA, on ice 2-3 h; Western blot; MBP and GST as controls; details: both partners purified
T2 construct: full length rat flotillin-1 in the pET41a vector; pET41a may add further tags (His, S-tag) besides GST (surmised); also called Flot-GST; flotillin-GST; source: E. coli Rosetta (DE3) pLysS, purified (glutathione sepharose, eluted with reduced glutathione)
T2 sequence (looked up): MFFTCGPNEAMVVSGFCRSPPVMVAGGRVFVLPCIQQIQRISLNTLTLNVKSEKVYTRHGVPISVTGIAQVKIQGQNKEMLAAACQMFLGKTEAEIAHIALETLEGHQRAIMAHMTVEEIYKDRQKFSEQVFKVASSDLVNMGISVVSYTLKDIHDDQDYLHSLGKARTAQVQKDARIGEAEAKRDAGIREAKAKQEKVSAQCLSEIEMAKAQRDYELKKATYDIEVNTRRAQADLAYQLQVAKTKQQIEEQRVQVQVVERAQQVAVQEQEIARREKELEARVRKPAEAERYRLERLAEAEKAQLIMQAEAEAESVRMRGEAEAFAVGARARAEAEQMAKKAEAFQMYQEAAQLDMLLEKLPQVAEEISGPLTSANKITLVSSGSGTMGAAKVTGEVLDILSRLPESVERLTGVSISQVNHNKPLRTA

- relative amount pulled down (normalised to the fusion protein), against the Dsg1 and Dsg2 pulldowns [1]: ~2 fold
B1: flotillin-2 (natural protein, human (endogenous in HaCaT), UniProt Q14254 1-428, looked up)
chain: MGNCHTVGPNEALVVSGGCCGSDYKQYVFGGWAWAWWCISDTQRISLEIMTLQPRCEDVETAEGVALTVTGVAQVKIMTEKELLAVACEQFLGKNVQDIKNVVLQTLEGHLRSILGTLTVEQIYQDRDQFAKLVREVAAPDVGRMGIEILSFTIKDVYDKVDYLSSLGKTQTAVVQRDADIGVAEAERDAGIREAECKKEMLDVKFMADTKIADSKRAFELQKSAFSEEVNIKTAEAQLAYELQGAREQQKIRQEEIEIEVVQRKKQIAVEAQEILRTDKELIATVRRPAEAEAHRIQQIAEGEKVKQVLLAQAEAEKIRKIGEAEAAVIEAMGKAEAERMKLKAEAYQKYGDAAKMALVLEALPQIAAKIAAPLTKVDEIVVLSGDNSKVTSEVNRLLAELPASVHALTGVDLSKIPLIKKATGVQV
notes: flotillin-2, endogenous in human HaCaT keratinocytes; also called Flot-2; source: endogenous, HaCaT lysate

- binding result [2]: binds
B2: Dsg3-MBP fusion protein (domain or fragment, human, UniProt P32926 641-999, looked up)
chain: T1 sequence (looked up)
notes: cytoplasmic domain of human desmoglein-3, cloned by PCR from HaCaT cells into pMAL-c2X; worked out from the printed primers: the forward primer begins with the codons for LTCDCGA, the reverse primer holds the stop codon (ends DPCSRLI-stop); source: E. coli Rosetta (DE3) pLysS, purified (amylose resin)

- relative amount pulled down (normalised to the fusion protein), against the Dsg1 and Dsg2 pulldowns [1]: ~2 fold
B3: flotillin-1 (natural protein, human (endogenous in HaCaT), UniProt O75955 1-427, looked up)
chain: MFFTCGPNEAMVVSGFCRSPPVMVAGGRVFVLPCIQQIQRISLNTLTLNVKSEKVYTRHGVPISVTGIAQVKIQGQNKEMLAAACQMFLGKTEAEIAHIALETLEGHQRAIMAHMTVEEIYKDRQKFSEQVFKVASSDLVNMGISVVSYTLKDIHDDQDYLHSLGKARTAQVQKDARIGEAEAKRDAGIREAKAKQEKVSAQYLSEIEMAKAQRDYELKKAAYDIEVNTRRAQADLAYQLQVAKTKQQIEEQRVQVQVVERAQQVAVQEQEIARREKELEARVRKPAEAERYKLERLAEAEKSQLIMQAEAEAASVRMRGEAEAFAIGARARAEAEQMAKKAEAFQLYQEAAQLDMLLEKLPQVAEEISGPLTSANKITLVSSGSGTMGAAKVTGEVLDILTRLPESVERLTGVSISQVNHKPLRTA
notes: flotillin-1, endogenous in human HaCaT keratinocytes; also called Flot-1; source: endogenous, HaCaT lysate

Source: paper PMC4922016, “Loss of flotillin expression results in weakened desmosomal adhesion and Pemphigus vulgaris-like localisation of desmoglein-3 in human keratinocytes” (Scientific Reports, 2016)
